In ChEMBL document CHEMBL3526099, “Metabolism of triethylenetetramine and 1,12-diamino-3,6,9-triazadodecane by the spermidine/spermine-N(1)-acetyltransferase and thialysine acetyltransferase” (Drug Metab Dispos, 2013):

Experiments:
NCCNCCNCCN = assay: not read
NCCCNCCNCCNCCN = assay: Drug metabolism assessed as mouse SSAT1-mediated metabolite formation; format: ADME

Chain of Diamine acetyltransferase 1 (Mus musculus) (chain, as listed by the source): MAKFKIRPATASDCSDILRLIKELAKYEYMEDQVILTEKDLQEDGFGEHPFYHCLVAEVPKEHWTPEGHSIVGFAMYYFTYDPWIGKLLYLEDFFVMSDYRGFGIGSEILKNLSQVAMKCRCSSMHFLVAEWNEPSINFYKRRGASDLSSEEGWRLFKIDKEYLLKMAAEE
Chain of Diamine acetyltransferase 1 (Homo sapiens) (chain, as listed by the source): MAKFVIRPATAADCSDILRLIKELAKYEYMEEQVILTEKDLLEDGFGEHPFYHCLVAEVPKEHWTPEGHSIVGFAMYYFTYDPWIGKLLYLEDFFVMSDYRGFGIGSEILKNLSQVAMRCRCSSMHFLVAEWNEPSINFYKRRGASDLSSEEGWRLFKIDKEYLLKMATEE

| Substance | Km (NCCNCCNCCN) | Vmax (NCCNCCNCCN) | Km (NCCCNCCNCCNCCN) | Vmax (NCCCNCCNCCNCCN) |
| --- | --- | --- | --- | --- |
| Diamine acetyltransferase 1 (Homo sapiens) | 83 µM | 0.9 µmol/min/mg |  |  |
| Diamine acetyltransferase 1 (Mus musculus) |  |  | 106 µM | 1.17 µmol/min/mg |
